{"source": "paper PMC12583656", "about": "“Conserved interfaces mediate multiple protein–protein interactions in a prokaryotic metabolon” (Molecular Systems Biology, 2025)", "molecules": {"B1": {"name": "DHFR, wild type, purified protein (enzyme, E. coli)", "chain": "MISLIAALAVDRVIGMENAMPWNLPADLAWFKRNTLNKPVIMGRHTWESIGRPLPGRKNIILSSQPGTDDRVTWVKSVDEAIAACGDVPEIMVIGGGRVYEQFLPKAQKLYLTHIDAEVEGDTHFPDYEPDDWESVFSEFHDADAQNSHSYCFEILERR", "notes": "dihydrofolate reductase (DHFR, FolA) of E. coli; Expression and purification are not described; also called WT DHFR; WT-DHFR"}, "B2": {"name": "N23V DHFR, purified protein (enzyme, E. coli)", "chain": "B1 chain with N23V", "notes": "dihydrofolate reductase (DHFR) of E. coli with one substitution; as m28; Expression and purification are not described; also called N23V mutant of DHFR"}, "B3": {"name": "D132H DHFR, purified protein (enzyme, E. coli)", "chain": "B1 chain with D132H", "notes": "dihydrofolate reductase (DHFR) of E. coli with one substitution; as m28; Expression and purification are not described; also called D132H mutant of DHFR"}, "B4": {"name": "D144N DHFR, purified protein (enzyme, E. coli)", "chain": "B1 chain with D144N", "notes": "dihydrofolate reductase (DHFR) of E. coli with one substitution; as m28; Expression and purification are not described; also called D144N mutant of DHFR"}}, "key": {"[1]": {"target": "adenylate kinase (Adk), split-YFP fusion (E. coli) (UniProt P69441)", "sequence (P69441 whole entry, the tested form may be a part)": "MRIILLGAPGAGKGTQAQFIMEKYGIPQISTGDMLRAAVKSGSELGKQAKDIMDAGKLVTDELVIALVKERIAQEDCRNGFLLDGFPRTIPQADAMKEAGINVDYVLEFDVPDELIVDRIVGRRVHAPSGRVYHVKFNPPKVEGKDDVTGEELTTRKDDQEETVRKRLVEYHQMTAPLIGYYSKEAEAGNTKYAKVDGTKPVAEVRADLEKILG", "assay": "split reporter (BiFC, NanoBiT); split monomeric EYFP (155/156) in living E. coli BW27783; NYFP fusion IPTG-induced, CYFP fusion arabinose-induced (0.2% arabinose, 1 mM IPTG), 30 °C 4-5 h; mean fluorescence intensity (MFI) of 30,000 cells by flow cytometry; both configurations measured, the higher value used; inducers also titrated for three pairs"}, "[2]": {"target": "T1, FolK, purified protein (E. coli, UniProt P26281 1-159)", "T1 construct": "FolK of E. coli (encoded by the gene folK); Expression and purification are not described", "T1 sequence": "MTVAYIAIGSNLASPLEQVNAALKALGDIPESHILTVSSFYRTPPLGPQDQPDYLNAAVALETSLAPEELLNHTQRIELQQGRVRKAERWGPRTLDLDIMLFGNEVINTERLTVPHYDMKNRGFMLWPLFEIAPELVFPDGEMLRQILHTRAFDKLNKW", "assay": "Raman spectroscopy; titration: DHFR 7.5-50 µM, FolK fixed at 15 µM; area of the interaction-specific peak at ~1663 cm^-1 against DHFR concentration, hyperbolic fit", "details": "both partners purified"}}, "note": "Changes are numbered by the printed parent chain. Names may count otherwise.", "data": [{"molecule": "dihydrofolate reductase (DHFR, FolA), split-YFP fusion (from UniProt P0ABQ4 1-159) (enzyme)", "values": [{"measurement": "MFI (mean YFP fluorescence intensity)", "setting": "[1]", "value": 641}]}, {"molecule": "B1", "values": [{"measurement": "Kd", "setting": "[2]", "value": 22, "unit": "µM"}]}, {"molecule": "B2", "values": [{"measurement": "Kd", "setting": "[2]", "value": 5.1, "unit": "µM"}]}, {"molecule": "B3", "values": [{"measurement": "Kd", "setting": "[2]", "value": 8.1, "unit": "µM"}]}, {"molecule": "B4", "values": [{"measurement": "Kd", "setting": "[2]", "value": 10, "unit": "µM"}]}]}
